Assay results published in US20120177651A1 (published 2012).

Tests used:
recombinant human HGF [1] = molecular target: T1, recombinant human HGF (human, UniProt P14210 32-728); assay: ELISA on plate-coated recombinant human HGF, detection with anti-human kappa light chain peroxidase conjugate, Abs 490 nm
T1 construct: also called Hepatocyte Growth Factor; Scatter Factor

recombinant human HGF [2] = molecular target: T1, recombinant human HGF; assay: SPR (Biacore T100), human HGF immobilised on CM5 chip, antibody as analyte, bivalent analyte model, 25 C
human VEGF = molecular target: T2, human VEGF (human, UniProt P15692-4 27-191, limits assumed); assay: SPR (Biacore T100), antibody captured on Protein A C1 chip, human VEGF as analyte
T2 construct: The background says that VEGF-A isoforms form homodimers

recombinant human HGF [3] = molecular target: T1, recombinant human HGF; assay: SPR (Biacore T100), human HGF immobilised on CM5 chip, antibody as analyte, 1:1 binding model, 25 C
recombinant human HGF [4] = molecular target: T1, recombinant human HGF; assay: cell-based or functional assay; set-up: unit not given beside the values
recombinant human HGF [5] = molecular target: T1, recombinant human HGF; assay: cell-based or functional assay

T1 sequence (P14210 32-728 limits assumed): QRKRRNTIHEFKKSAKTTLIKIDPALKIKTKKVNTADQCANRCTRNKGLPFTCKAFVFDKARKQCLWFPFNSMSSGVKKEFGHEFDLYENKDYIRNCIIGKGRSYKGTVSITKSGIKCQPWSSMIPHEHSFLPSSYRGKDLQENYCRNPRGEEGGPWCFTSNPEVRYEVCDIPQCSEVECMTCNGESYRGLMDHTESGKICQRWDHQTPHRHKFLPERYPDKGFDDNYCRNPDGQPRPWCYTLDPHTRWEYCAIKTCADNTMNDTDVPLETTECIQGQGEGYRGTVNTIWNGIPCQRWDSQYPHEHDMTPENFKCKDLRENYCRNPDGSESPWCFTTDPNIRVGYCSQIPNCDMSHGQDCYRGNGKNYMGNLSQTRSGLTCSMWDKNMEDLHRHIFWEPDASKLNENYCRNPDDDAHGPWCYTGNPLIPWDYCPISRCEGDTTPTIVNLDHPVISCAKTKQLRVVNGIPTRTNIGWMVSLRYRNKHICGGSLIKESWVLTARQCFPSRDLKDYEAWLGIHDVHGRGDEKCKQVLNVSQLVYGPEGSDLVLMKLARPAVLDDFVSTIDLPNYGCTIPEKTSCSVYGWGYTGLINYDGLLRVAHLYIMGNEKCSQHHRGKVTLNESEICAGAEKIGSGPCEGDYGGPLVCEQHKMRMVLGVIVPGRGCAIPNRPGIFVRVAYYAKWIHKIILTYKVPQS
T2 sequence (P15692 other isoform, or with tags, fused parts or gaps limits assumed): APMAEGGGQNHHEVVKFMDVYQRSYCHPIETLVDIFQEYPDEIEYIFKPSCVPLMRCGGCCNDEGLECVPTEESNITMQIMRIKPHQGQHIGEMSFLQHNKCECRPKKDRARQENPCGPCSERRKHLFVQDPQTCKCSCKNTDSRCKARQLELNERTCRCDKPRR

B1: BPC2014 (antibody, human IgG1, kappa, V domains shown)
VH: QVQLVQPGAEVKKPGTSVKLSCKASGYTFTTYWMHWVRQAPGQGLEWIGEINPTNGHTNYNQKFQGRATLTVDKSTSTAYMELSSLRSEDTAVYYCARNYVGSIFDYWGQGTLVTVSS
VL: DIVMTQSPDSLAMSLGERVTLNCKASENVVSYVSWYQQKPGQSPKLLIYGASNRESGVPDRFSGSGSATDFTLTISSVQAEDVADYHCGQSYNYPYTFGQGTKLEIKR
notes: Full human IgG1 (Fc wild type) / kappa anti-HGF antibody, expressed in HEK 293-6E cells; also called HE2B8-4; anti-HGF mAb LRMR2B8
Question: B1 was tested. Which “EC50 (read off the curve)” value (recombinant human HGF [1]) did it give?
Answer: ~1 nM

Question: What about the Kd (recombinant human HGF [2]) of the same binder?
Answer: 1.62 nM

Question: What about the koff (recombinant human HGF [2]) of the same binder?
Answer: 0.000204 s⁻¹

Question: And the kon (recombinant human HGF [2])?
Answer: 126000 M⁻¹ s⁻¹

Question: Does B1 bind (human VEGF)?
Answer: no binding (tested: human VEGF up to 256 nM)

Question: What about the Kd (recombinant human HGF [3]) of the same binder?
Answer: 1.54 nM

Question: And the koff (recombinant human HGF [3])?
Answer: 0.00011 s⁻¹

Question: What about the kon (recombinant human HGF [3]) of the same binder?
Answer: 71400 M⁻¹ s⁻¹

Question: What about the “IC50, MET phosphorylation in Bx-PC3 cells (mean of three experiments)” value (recombinant human HGF [4]) of the same binder?
Answer: 4.5

B2: BPC2015 (antibody, human IgG1, kappa, V domains shown)
VH: EVQLVQSGAEVKKPGASVKVSCKVSGYTFSGNWIEWVRQAPGKGLEWIGEILPGSGNTNYNEKFKGKATMTADTSTDTAYMELSSLRSEDTAVYYCARGGHYYGSSWDYWGQGTLVTVSS
VL: DIVMTQSPSSLSASVGDRVTITCKASENVVTYVSWYQQKPGKAPKLLIYGASNRYTGVPDRFSGSGSGTDFTLTISSLQPEDFATYYCGQGYSYPYTFGQGTKLEIKR
notes: Full human IgG1 (Fc wild type) / kappa anti-HGF antibody, expressed in HEK 293-6E cells; also called HuL2G7; anti-HGF mAb HuL2G7
Question: Which results are given for B2?
Answer: EC50 (read off the curve) (recombinant human HGF [1]): ~0.7 nM; IC50, % phospho AKT in Bx-PC3 cells (MSD, mean of two experiments) (recombinant human HGF [5]): 0.63 nM; IC50, % phospho ERK in Bx-PC3 cells (MSD, mean of two experiments) (recombinant human HGF [5]): 0.98 nM; IC50, % phospho MET in Bx-PC3 cells (MSD, mean of two experiments) (recombinant human HGF [5]): 0.4 nM; IC50, Bx-PC3 cell migration with 25 ng/ml HGF (Oris, mean of three experiments) (recombinant human HGF [5]): 0.33 nM; Kd (recombinant human HGF [2]): 0.58 nM; koff (recombinant human HGF [2]): 0.000132 s⁻¹; kon (recombinant human HGF [2]): 228000 M⁻¹ s⁻¹; Kd (recombinant human HGF [3]): 0.44 nM; koff (recombinant human HGF [3]): 8.19e-05 s⁻¹; kon (recombinant human HGF [3]): 186000 M⁻¹ s⁻¹; IC50, MET phosphorylation in Bx-PC3 cells (mean of three experiments) (recombinant human HGF [4]): 4.2

B3: BPC2013 (antibody, human IgG1, kappa, V domains shown)
VH: QVQLQESGPGLVKPSETLSLTCTVSGGSISIYYWSWIRQPPGKGLEWIGYVYYSGSTNYNPSLKSRVTISVDTSKNQFSLKLNSVTAADTAVYYCARGGYDFWSGYFDYWGQGTLVTVSS
VL: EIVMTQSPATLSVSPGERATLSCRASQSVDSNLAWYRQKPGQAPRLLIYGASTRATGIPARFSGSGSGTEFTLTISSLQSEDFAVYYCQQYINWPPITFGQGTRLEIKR
notes: Full human IgG1 (Fc wild type) / kappa anti-HGF antibody, expressed in HEK 293-6E cells; also called 2.12.1; anti-HGF mAb 2.12.1
Question: What does the source list for B3?
Answer: EC50 (read off the curve) (recombinant human HGF [1]): ~1 nM; Kd (recombinant human HGF [2]): 0.83 nM; koff (recombinant human HGF [2]): 0.000202 s⁻¹; kon (recombinant human HGF [2]): 242000 M⁻¹ s⁻¹; binding result (human VEGF): no binding (tested: human VEGF up to 256 nM); Kd (recombinant human HGF [3]): 0.88 nM; koff (recombinant human HGF [3]): 0.000122 s⁻¹; kon (recombinant human HGF [3]): 140000 M⁻¹ s⁻¹; IC50, MET phosphorylation in Bx-PC3 cells (mean of three experiments) (recombinant human HGF [4]): 3.6
